The record followed here is patent publication US20040176573A1.

Assay [1] addresses HLA-A2 (human).
For assay [2], the target named is HLA-A2 (human). This is another data set of the same source.

Where two headings read alike, the source gives them in different places.

“HIV-1 pol476-484 (peptide; other documents disagree on this pair)”: the values for the C50 in assay [1] and in assay [2] were 0.7 µM and 0.2 µM, respectively.
